From patent publication US20210070876A1 (LES LABORATOIRES SERVIER, published 2021)

T1: human CD73 ECD fused C-terminally to human IgG1 Fc (human, UniProt P21589 27-549, limits assumed)
T1 construct: Expressed in ExpiCHO; also called Hs CD73 ECD; Fc-tagged antigen
T1 sequence: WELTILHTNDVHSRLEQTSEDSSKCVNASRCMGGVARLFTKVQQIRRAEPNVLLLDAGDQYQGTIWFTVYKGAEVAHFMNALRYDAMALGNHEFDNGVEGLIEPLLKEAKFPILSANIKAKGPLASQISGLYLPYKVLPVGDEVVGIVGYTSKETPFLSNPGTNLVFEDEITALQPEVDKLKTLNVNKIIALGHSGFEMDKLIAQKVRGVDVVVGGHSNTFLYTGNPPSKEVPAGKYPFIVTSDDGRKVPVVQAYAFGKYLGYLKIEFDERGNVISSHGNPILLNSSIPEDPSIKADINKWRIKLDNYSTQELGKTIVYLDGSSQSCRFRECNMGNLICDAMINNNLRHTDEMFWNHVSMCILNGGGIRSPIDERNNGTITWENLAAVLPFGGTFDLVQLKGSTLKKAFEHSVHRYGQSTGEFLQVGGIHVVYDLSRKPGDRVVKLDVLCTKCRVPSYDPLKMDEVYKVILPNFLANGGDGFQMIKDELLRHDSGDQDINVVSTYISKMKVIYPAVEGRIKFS

T2: cynomolgus CD73 ECD fused C-terminally to human IgG1 Fc (cynomolgus monkey (Macaca …, UniProt A0A2K5V5U7 27-549))
T2 construct: also called Cy CD73 ECD; Fc-tagged antigen; not shown: Human IgG1 Fc (printed as AA P101-K330) fused to the C-terminus of the ECD, and any linker
T2 sequence: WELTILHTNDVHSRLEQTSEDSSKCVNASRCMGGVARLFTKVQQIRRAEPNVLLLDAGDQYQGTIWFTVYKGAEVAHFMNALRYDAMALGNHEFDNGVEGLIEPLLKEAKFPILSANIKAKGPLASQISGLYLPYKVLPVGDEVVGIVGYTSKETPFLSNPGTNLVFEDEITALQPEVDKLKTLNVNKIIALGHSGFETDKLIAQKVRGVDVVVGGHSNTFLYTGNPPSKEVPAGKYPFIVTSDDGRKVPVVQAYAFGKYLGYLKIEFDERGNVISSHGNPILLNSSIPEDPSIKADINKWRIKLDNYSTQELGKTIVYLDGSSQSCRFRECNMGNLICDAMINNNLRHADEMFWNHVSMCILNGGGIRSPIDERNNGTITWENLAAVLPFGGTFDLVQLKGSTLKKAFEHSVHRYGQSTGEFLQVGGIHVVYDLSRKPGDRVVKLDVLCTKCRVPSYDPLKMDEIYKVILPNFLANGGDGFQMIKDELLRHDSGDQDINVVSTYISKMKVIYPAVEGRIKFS

T3: His-tagged human CD73 ECD (human, UniProt P21589 27-549)
T3 construct: runs as a homodimer of about 124-125 kDa in SEC-MALS; also called CD73-His; CD73-His ECD antigen
T3 sequence: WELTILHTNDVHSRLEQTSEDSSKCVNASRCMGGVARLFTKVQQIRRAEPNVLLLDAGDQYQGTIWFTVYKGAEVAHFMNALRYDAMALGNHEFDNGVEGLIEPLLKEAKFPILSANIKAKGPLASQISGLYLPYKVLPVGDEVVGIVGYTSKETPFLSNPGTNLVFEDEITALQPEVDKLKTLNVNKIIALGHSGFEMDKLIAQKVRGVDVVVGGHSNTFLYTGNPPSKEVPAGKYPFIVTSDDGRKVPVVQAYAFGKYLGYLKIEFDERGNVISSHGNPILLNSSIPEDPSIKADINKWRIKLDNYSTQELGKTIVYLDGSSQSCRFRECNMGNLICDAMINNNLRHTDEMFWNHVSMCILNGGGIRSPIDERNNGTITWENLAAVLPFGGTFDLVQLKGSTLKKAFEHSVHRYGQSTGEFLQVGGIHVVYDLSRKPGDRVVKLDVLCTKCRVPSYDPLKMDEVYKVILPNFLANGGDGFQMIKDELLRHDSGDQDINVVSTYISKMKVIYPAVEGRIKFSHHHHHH

T4: His-tagged cynomolgus CD73 ECD (cynomolgus monkey (Macaca fascicularis))
T4 chain: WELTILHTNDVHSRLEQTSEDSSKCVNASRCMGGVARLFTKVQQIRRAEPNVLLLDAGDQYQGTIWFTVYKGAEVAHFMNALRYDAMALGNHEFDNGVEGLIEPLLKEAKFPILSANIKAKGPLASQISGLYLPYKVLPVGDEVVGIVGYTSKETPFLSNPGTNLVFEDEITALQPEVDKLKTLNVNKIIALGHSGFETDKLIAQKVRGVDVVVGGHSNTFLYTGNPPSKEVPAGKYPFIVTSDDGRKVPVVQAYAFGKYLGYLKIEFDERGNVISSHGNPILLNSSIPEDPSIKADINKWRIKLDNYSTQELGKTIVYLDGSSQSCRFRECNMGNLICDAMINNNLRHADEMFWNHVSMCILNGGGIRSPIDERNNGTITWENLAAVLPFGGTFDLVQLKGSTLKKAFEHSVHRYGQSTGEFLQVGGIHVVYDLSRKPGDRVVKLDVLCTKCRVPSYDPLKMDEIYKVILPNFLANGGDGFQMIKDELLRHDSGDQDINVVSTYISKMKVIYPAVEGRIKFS


Columns and labels:
[1] = target: T1, human CD73 ECD fused C-terminally to …; assay: SPR, Fc-tagged CD73 ECD captured, Fab injected
Description: (§1) Kinetic binding analysis of anti-CD73 mAbs and Fab fragments was performed by Surface Plasmon Resonance (SPR), using a Continuous Flow Microspotter (CFM, Wasatch Microfluidics, Salt Lake City, US) combined with an IBIS MX96 SPR instrument (IBIS Technologies, The Netherlands). CD73 cDNAs coding for the extracellular domains of human and cynomolgus CD73 were synthesized and each cloned into a vector containing a CMV promoter and either a C-terminal 6× histidine sequence (SEQ ID NO: 45) for His-tagged CD73 ECD, or a human IgG1 Fc sequence (AA P101-K330), resulting in fusion of IgG1 Fc C-terminally to the cloned CD73 ECD. The His-tagged and Fc-fusion constructs were transiently expressed using an ExpiCHO™ expression system and purified either by standard Ni-NTA chromatography or standard MabSelect™ SuRe™ procedures, respectively. Anti-CD73 Fab fragments were generated by digesting full-length IgG1 antibodies with GingisKHAN enzyme, using a kit provided by Genovis (Sweden). Affinities of Fab fragments were measured by capturing Fc-tagged antigens on a G-a-hu-IgG Fc SensEye® for 15 minutes using the CFM. After spotting, the SensEye® was positioned in the IBIS MX96 biosensor and immobilized antigens were fixed by SensEye FixIt kit. Kinetic analysis was performed by injecting monomeric Fab fragments at increasing concentrations from 0.8 nM to 300 nM. After each cycle of Fab fragment injection, the surface was regenerated by 10 mM glycine pH 3, 10% glycerol. Fab association was performed for 15 minutes and antigen dissociation was performed for 15 minutes. Affinities of full-length monoclonal antibodies (mAbs) were measured by capturing mAbs on a G-a-hu-IgG Fc SensEye® (Ssens BV, The Netherlands) for 15 minutes using a Continuous Flow Microspotter (CFM, Wasatch Microfluidics, Salt Lake City, US). After spotting, the SensEye was docked in the IBIS MX96 and spotted mAbs were fixed by SensEye FixIt kit (Ssens BV, The Netherlands). Kinetic analysis was performed by applying a kinetic titration series injecting increasing concentrations of His-tagged antigens from 0.16 nM to 10 nM as 2-fold dilutions. The surface was regenerated before the next cycle of cynomolgus antigen injections by 100 mM H₃PO₄, pH 3. MAb association was performed for 15 minutes and antigen dissociation was performed for 45 minutes.

[2] = target: T2, cynomolgus CD73 ECD fused C-terminally …; assay: SPR, Fc-tagged CD73 ECD captured, Fab injected
Description: as §1

[3] = target: T3, His-tagged human CD73 ECD; assay: SEC-MALS, mAb:CD73 1:1
Description: (§2) Anti-CD73 antibodies and His-tagged CD73 were analyzed in different ratios as well as individually to analyze the size of complexes formed between CD73 homodimer and anti-CD73 antibodies. Samples were prepared by mixing […] of CD73-His with 900, 450, 90 or 0 μmol of antibody diluted into PBS, pH 7.4. Samples were incubated for 30 min at room temperature followed by separation using a UHPLC UltiMate 3000 (Thermo Scientific) and SEC X-Bridge column (Waters) at a flow rate of 1.2 mL/min. Sample running buffer was 0.01 M Citrate, 250 mM L-Arginine.HCl, pH 6.0. Following HPLC separation, all samples were analyzed using a MiniDAWN TREOS MALS detector (Wyatt) and Optilab T-rEX refractive index detector (Wyatt). Data plots were generated using Graph Pad Prism.

[4] = target: T3, His-tagged human CD73 ECD; assay: SEC-MALS, mAb:CD73 0.1:1
Description: as §2

[5] = target: T3, His-tagged human CD73 ECD; assay: SEC-MALS, mAb:CD73 0.5:1
Description: as §2

[6] = target: T4, His-tagged cynomolgus CD73 ECD; assay: SPR, mAb captured, His-tagged CD73 ECD injected
Description: as §1

[7] = target: T3, His-tagged human CD73 ECD; assay: SPR, mAb captured, His-tagged CD73 ECD injected
Description: as §1

Kd [1] [nM] | Kd [2] [nM] | molecular mass of complex, Peak 2 (MW, kDa) [3] [kDa] | molecular mass of complex, Peak 2 (MW, kDa) [4] [kDa] | molecular mass of complex, Peak 2 (MW, kDa) [5] [kDa] | Kd [6] [nM] | koff [6] [s⁻¹] | kon [6] [M⁻¹ s⁻¹] | Kd [7] [nM] | koff [7] [s⁻¹] | kon [7] [M⁻¹ s⁻¹] | koff [1] [s⁻¹] | kon [1] [M⁻¹ s⁻¹] | koff [2] [s⁻¹] | kon [2] [M⁻¹ s⁻¹] | Binder
54.6 | 55.3 |  |  |  |  |  |  |  |  |  |  |  |  |  | 21127 Fab fragment (Fab, V domains shown, not shown: small tags and cut ends, Made by digesting the full-length IgG1 with GingisKHAN enzyme (Genovis)) VH: EVQLVESGGGLVQPGRSLRLSCAASGFTFDDFAMHWVRQAPGKGLEWVSGISWNSGNIGYADSVKGRFTISRDNAKNSLYLQMNSLRAEDTALYYCAKDKSGSPYYYYGMDVWGQGTMVTVSS VL: DIQMTQSPSSVSASVGDRVTITCRATQGISRRLAWYQQKPGKAPKLLIYAASSLQSGVPSRFSGSGSGTDFTLTISSLQPEDFATYYCQQANSFPLTFGGGTKVEIKR
 |  | 280 | 279 | 278 | 0.66 | 6.2e-05 | 100000 | 0.91 | 5.5e-05 | 65000 |  |  |  |  | antibody 21163 (antibody, human IgG1, kappa, L234A L235A, V domains shown, Fully human IgG1-LALA (L234A/L235A), kappa) VH: EVQLVESGGGLVQPGGSLRLSCAASGFSFSTYWMNWVRQAPGKGLEWVANIKQDGSEKYYVDSVKGRFTISRDNAKNSLYLQMNSLRAEDTAVYYCARDISSSWFYYYGMDVWGQGTTVTVSS VL: DIQLTQSPSFLSASVGDRVTITCRASQGISSYLAWYQQKPGKAPKLLIYAASTLQSGVPSRFSGSGSGTEFTLTISSLQPEDFATYYCQQLNSYPPTFGGGTKVEIKR
0.8 | 0.8 |  |  |  |  |  |  |  |  |  | 0.0005 | 610000 | 0.00052 | 620000 | 21046 Fab fragment (Fab, V domains shown, not shown: small tags and cut ends, Made by digesting the full-length IgG1 with GingisKHAN enzyme (Genovis)) VH: EVQLVESGGGLVQPGRSLRLSCVASGFTFDDYAMHWVRQAPGKGLEWVSGISWNSGSIGYADSVKGRFTISRDNAKNSLYLQMNSLRAEDTAFYYCAQGGYAILTALEYWGQGTLVTVSS VL: DIQMTQSPSSLSASVGDRVTITCRASQGISNYLAWFQQKPGKAPKSLIYAASSLQSGVPSKFSGSGSGTDFTLTISSLQPEDFATYYCQQYNSYPLTFGGGTKVEIKR
